Measured values published in patent US20260193356A1.

What was measured:
[1] = target: dog (Canis lupus) PDL1 (dPDL1) expressed on CHO-S cells (CHO-S-dPDL1) (dog (Canis lupus)); test: flow cytometry on CHO-S-dPDL1 cells; antibody 1 µg/mL
[2] = target: mouse (Mus musculu) PDL1 (mPDL1) expressed on CHO-S cells (CHO-S-mPDL1) (mouse) (UniProt Q9EP73); test: flow cytometry on CHO-S-mPDL1 cells; antibody 0.1 µg/mL
[3] = target: dog (Canis lupus) PDL1 (dPDL1) expressed on CHO-S cells (CHO-S-dPDL1) (dog (Canis lupus)); test: flow cytometry on CHO-S-dPDL1 cells; antibody 0.1 µg/mL
[4] = target: monkey (Macaca fascicularis) PDL1 (fasPDL1) expressed on CHO-S cells (CHO-S-fasPDL1) (monkey (Macaca fascicularis)); test: flow cytometry on CHO-S-fasPDL1 cells; antibody 0.1 µg/mL
Chain of monkey (Macaca fascicularis) PDL1 (fasPDL1) expressed on CHO-S cells (CHO-S-fasPDL1) (monkey (Macaca fascicularis)) (Q9NZQ7 other isoform, or with tags, fused parts or gaps limits assumed): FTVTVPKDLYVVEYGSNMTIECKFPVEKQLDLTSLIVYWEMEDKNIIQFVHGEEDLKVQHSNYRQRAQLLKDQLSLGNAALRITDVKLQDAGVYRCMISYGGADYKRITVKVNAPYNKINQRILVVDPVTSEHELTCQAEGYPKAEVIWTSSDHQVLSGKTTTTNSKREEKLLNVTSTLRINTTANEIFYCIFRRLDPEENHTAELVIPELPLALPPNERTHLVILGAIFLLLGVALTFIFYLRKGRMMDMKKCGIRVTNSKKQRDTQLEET

[5] = target: human PDL1 (hPDL1) expressed on CHO-S cells (CHO-S-hPDL1) (human) (UniProt Q9NZQ7); test: flow cytometry on CHO-S-hPDL1 cells; antibody 0.1 µg/mL
Chain of human PDL1 (hPDL1) expressed on CHO-S cells (CHO-S-hPDL1) (human) (Q9NZQ7 19-290 limits assumed): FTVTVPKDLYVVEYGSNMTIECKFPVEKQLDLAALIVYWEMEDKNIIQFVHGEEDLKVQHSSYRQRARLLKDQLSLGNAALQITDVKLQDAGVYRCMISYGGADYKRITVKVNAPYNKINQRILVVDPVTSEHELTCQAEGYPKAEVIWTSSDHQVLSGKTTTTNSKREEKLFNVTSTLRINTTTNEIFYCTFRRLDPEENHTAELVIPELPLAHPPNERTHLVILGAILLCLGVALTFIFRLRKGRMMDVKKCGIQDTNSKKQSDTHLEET

[6] = target: human PDL1 (hPDL1) expressed on CHO-S cells (CHO-S-hPDL1) (human) (UniProt Q9NZQ7); test: flow cytometry on CHO-S-hPDL1 cells; antibody 1 µg/mL
[7] = target: mouse (Mus musculu) PDL1 (mPDL1) expressed on CHO-S cells (CHO-S-mPDL1) (mouse) (UniProt Q9EP73); test: flow cytometry on CHO-S-mPDL1 cells; antibody 1 µg/mL
[8] = target: monkey (Macaca fascicularis) PDL1 (fasPDL1) expressed on CHO-S cells (CHO-S-fasPDL1) (monkey (Macaca fascicularis)); test: flow cytometry on CHO-S-fasPDL1 cells; antibody 1 µg/mL
[9] = target: mouse (Mus musculu) PDL1 (mPDL1) expressed on CHO-S cells (CHO-S-mPDL1) (mouse) (UniProt Q9EP73); test: flow cytometry on CHO-S-mPDL1 cells, secondary antibody only; 1 µg/mL
[10] = target: monkey (Macaca fascicularis) PDL1 (fasPDL1) expressed on CHO-S cells (CHO-S-fasPDL1) (monkey (Macaca fascicularis)); test: flow cytometry on CHO-S-fasPDL1 cells, secondary antibody only; 1 µg/mL
[11] = target: mouse (Mus musculu) PDL1 (mPDL1) expressed on CHO-S cells (CHO-S-mPDL1) (mouse) (UniProt Q9EP73); test: flow cytometry on CHO-S-mPDL1 cells, secondary antibody only; 0.1 µg/mL
[12] = target: dog (Canis lupus) PDL1 (dPDL1) expressed on CHO-S cells (CHO-S-dPDL1) (dog (Canis lupus)); test: flow cytometry on CHO-S-dPDL1 cells, secondary antibody only; 1 µg/mL
[13] = target: human PDL1 (hPDL1) expressed on CHO-S cells (CHO-S-hPDL1) (human) (UniProt Q9NZQ7); test: flow cytometry on CHO-S-hPDL1 cells, secondary antibody only; 0.1 µg/mL
[14] = target: human PDL1 (hPDL1) expressed on CHO-S cells (CHO-S-hPDL1) (human) (UniProt Q9NZQ7); test: flow cytometry on CHO-S-hPDL1 cells, secondary antibody only; 1 µg/mL
[15] = target: monkey (Macaca fascicularis) PDL1 (fasPDL1) expressed on CHO-S cells (CHO-S-fasPDL1) (monkey (Macaca fascicularis)); test: flow cytometry on CHO-S-fasPDL1 cells, secondary antibody only; 0.1 µg/mL
[16] = target: dog (Canis lupus) PDL1 (dPDL1) expressed on CHO-S cells (CHO-S-dPDL1) (dog (Canis lupus)); test: flow cytometry on CHO-S-dPDL1 cells, secondary antibody only; 0.1 µg/mL

Chain of dog (Canis lupus) PDL1 (dPDL1) expressed on CHO-S cells (CHO-S-dPDL1) (dog (Canis lupus)) (chain, as listed by the source limits assumed, form in doubt): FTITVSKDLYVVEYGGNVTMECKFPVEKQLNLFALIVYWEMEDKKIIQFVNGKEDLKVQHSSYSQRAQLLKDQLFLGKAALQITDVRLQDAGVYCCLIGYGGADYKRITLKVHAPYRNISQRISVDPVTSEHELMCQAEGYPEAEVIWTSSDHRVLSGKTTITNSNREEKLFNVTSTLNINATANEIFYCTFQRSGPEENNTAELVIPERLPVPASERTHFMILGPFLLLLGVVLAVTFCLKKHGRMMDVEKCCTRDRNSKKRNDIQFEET
Chain of mouse (Mus musculu) PDL1 (mPDL1) expressed on CHO-S cells (CHO-S-mPDL1) (mouse) (Q9EP73 19-290 limits assumed): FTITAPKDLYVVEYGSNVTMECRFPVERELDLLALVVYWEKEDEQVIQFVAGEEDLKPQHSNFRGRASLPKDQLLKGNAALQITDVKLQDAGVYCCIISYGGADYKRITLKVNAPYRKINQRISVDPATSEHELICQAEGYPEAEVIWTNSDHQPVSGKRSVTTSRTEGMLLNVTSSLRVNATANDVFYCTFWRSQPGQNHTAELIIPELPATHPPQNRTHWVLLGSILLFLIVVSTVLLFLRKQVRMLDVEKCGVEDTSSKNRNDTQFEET

| Substance | Percentage of Positive Cells (%) [1] | Percentage of Positive Cells (%) [2] | Percentage of Positive Cells (%) [3] | Percentage of Positive Cells (%) [4] | Percentage of Positive Cells (%) [5] | Percentage of Positive Cells (%) [6] | Percentage of Positive Cells (%) [7] | Percentage of Positive Cells (%) [8] | Percentage of Positive Cells (%) [9] | Percentage of Positive Cells (%) [10] | Percentage of Positive Cells (%) [11] | Percentage of Positive Cells (%) [12] | Percentage of Positive Cells (%) [13] | Percentage of Positive Cells (%) [14] | Percentage of Positive Cells (%) [15] | Percentage of Positive Cells (%) [16] |
| --- | --- | --- | --- | --- | --- | --- | --- | --- | --- | --- | --- | --- | --- | --- | --- | --- |
| ISO (isotype control, antibody with the same IgG1 subtype but targeting an unrelated target) | 4.28% | 2.26% | 14.2% | 1.87% | 2.01% | 3.05% | 3.52% | 2.53% | – | – | – | – | – | – | – | – |
| secondary antibody anti-hIgG-Fc-Alex Flour 647 (RL1-H) (Jackson ImmunoResearch Laboratories, Inc., 109-606-170) | – | – | – | – | – | – | – | – | 2.31% | 2.34% | 1.04% | 1.76% | 1.48% | 1.13% | 1.38% | 1.68% |
